In experiment [1] the target is actin-related protein (Arp) 2/3 complex (UniProt P61160). Nature of the experiment: SPR; Arpin variants and dual-tailed peptides against the Arp2/3 complex; who was immobilised was not shown; hArpin as the dimer-enriched population. For orientation: Surface plasmon resonance follows binding to a sensor surface in real time, without labels.
The target in experiment [2] is GST-aCT (chimeric protein with Arpin's CT fused to the C-terminus of glutathione S-transferase). The experiment can be described thus: SEC; recombinant GST-aCT. Background: Size exclusion chromatography separates by hydrodynamic size, large species first.

Broadly, the Kd is the concentration at which binding is half-saturated. Read a high Kd as weaker binding. “ArpinCT (residues 192–226) (from UniProt Q7Z6K5 192-226) (peptide)” came in with a Kd in experiment [1] of 17.8 µM.
In general, stoichiometry N refers to the number of molecules, sites or subunits per partner or assembly. Turning to “GST-aCT (chimeric protein with Arpin's CT fused to the C-terminus of glutathione S-transferase)”, the stoichiometry N in experiment [2] is 2. Also, the Kd in experiment [1] was found to be 2.5 µM.
In experiment [1], “full-length human Arpin (hArpin) (from UniProt Q7Z6K5 1-226) (natural protein)” returned a Kd of 14.1 µM. This lies in the double-digit micromolar range.

The values are drawn from article PMC13626732.
